Assay results taken from patent US20140256916A1 (Sanofi, published 2014).

Experiments:
[1] = biological target: T1, CA6, tumor-associated MUC1-sialoglycotope (human, UniProt P15941 24-1255, carries the CA6 sialoglycotope (sialylated glycan epitope); sites not stated); test: flow cytometry on WISH (CA6+) cells (method from Example 4)
T1 construct: whole, on cells; In the assays it is presented on WISH cells (CA6+); A2780 cells are CA6 negative; also called CA6 antigen; human CA6 tumor antigen
Target sequence in this assay (P15941 24-1255): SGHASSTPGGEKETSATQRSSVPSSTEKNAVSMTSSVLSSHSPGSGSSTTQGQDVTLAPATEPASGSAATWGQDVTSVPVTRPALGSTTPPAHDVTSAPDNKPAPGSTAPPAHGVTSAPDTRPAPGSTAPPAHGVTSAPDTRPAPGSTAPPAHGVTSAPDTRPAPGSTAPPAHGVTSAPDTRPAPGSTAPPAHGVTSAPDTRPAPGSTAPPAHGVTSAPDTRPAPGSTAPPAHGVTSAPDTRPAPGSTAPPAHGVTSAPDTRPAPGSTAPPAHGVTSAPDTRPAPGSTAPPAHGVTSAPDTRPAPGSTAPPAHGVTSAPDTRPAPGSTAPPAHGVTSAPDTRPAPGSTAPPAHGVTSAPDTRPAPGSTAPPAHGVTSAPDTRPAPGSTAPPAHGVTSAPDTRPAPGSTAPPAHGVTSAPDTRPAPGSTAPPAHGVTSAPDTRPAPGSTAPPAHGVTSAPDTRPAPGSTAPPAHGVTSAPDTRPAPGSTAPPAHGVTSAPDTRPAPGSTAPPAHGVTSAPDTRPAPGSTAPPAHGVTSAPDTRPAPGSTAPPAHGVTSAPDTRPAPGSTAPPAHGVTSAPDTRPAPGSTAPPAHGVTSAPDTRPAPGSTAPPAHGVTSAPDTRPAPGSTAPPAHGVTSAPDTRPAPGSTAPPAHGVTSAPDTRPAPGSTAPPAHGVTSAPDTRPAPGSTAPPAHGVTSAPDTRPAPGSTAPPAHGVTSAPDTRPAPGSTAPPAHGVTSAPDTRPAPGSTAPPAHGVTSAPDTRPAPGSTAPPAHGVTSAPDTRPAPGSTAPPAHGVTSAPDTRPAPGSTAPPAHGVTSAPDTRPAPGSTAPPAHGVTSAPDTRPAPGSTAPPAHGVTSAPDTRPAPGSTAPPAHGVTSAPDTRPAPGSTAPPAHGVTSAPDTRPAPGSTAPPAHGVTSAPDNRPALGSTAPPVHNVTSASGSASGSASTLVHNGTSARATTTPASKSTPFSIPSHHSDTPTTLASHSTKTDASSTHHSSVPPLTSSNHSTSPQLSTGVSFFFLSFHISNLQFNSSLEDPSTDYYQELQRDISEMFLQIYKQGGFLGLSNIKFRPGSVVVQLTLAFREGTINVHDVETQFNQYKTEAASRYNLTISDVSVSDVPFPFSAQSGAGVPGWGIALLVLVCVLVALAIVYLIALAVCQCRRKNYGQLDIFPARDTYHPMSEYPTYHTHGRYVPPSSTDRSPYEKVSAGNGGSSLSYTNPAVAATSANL

[2] = biological target: T2, CA6, tumor-associated MUC1-sialoglycotope (human, UniProt P15941 24-1255, carries the CA6 sialoglycotope (sialylated glycan epitope); sites not stated); test: flow cytometry (FACS) on WISH cells (CA6+)
Target sequence in this assay (P15941 24-1097, chain 1 of 2): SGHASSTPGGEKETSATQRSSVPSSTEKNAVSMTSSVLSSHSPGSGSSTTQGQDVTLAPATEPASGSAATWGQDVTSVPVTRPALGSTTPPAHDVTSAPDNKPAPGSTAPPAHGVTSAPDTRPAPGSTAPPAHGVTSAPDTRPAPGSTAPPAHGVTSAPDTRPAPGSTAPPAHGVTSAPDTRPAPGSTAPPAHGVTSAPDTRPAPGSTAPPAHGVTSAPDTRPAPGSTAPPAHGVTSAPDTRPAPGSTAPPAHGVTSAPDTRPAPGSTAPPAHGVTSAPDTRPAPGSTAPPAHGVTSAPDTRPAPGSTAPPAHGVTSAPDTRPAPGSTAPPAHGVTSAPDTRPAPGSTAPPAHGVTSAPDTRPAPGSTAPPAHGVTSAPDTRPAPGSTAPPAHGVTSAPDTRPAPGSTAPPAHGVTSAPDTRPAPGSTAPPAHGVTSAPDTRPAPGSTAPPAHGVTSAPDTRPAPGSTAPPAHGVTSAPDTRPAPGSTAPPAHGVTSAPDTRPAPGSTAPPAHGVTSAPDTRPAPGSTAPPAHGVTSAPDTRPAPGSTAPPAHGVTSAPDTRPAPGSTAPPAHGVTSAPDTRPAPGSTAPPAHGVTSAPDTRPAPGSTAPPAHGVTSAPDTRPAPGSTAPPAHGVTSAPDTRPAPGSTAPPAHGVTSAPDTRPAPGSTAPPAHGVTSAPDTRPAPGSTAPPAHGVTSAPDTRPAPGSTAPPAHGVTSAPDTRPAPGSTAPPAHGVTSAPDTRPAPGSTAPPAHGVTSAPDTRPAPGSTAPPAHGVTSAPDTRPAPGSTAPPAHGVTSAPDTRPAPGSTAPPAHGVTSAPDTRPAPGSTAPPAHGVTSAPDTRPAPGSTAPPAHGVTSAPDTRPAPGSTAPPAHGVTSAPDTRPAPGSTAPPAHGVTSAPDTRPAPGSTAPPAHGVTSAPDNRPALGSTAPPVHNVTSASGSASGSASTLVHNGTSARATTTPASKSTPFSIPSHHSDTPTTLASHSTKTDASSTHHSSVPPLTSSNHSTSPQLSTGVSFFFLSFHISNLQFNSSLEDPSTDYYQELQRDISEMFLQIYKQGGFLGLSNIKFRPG
Target sequence in this assay (P15941 1098-1255, chain 2 of 2): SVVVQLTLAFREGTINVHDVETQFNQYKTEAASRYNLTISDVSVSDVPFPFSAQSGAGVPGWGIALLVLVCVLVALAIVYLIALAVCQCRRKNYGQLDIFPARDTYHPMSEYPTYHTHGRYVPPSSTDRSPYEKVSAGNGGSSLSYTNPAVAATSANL

[3] = biological target: T2, CA6, tumor-associated …; test: flow cytometry (FACS) on WISH cells (CA6+); remark: listed apart in the source
T2 sequence (P15941 24-1097, chain 1 of 2): as the sequence (P15941 24-1097, chain 1 of 2) above
T2 sequence (P15941 1098-1255, chain 2 of 2): as the sequence (P15941 1098-1255, chain 2 of 2) above

[4] = biological target: T2, CA6, tumor-associated …; test: flow cytometry (FACS) on WISH cells (CA6+); remark: listed apart in the source
[5] = biological target: T2, CA6, tumor-associated …; test: method not given; presumably flow cytometry on WISH (CA6+) cells as for the B-Fabs
[6] = biological target: T1, CA6, tumor-associated …; test: flow cytometry (FACS) on WISH cells (CA6+), normalized fluorescence, without DOTA
T1 sequence (P15941 24-1255): as the sequence (P15941 24-1255) above

[7] = biological target: T1, CA6, tumor-associated …; test: flow cytometry (FACS) on WISH cells (CA6+)
Description: The B-Fab 1153 is a DS6-based engineered antibody-like binding protein containing a both L1 and L2 linkers as (G45)₂ and not containing a C-terminal 6x-His tag. Since this protein was lacking a His tag the protein was purified by […], Kappa-select and SEC. The in vitro binding solution was prepared at 1.6 mg/ml in PBS and binding affinity was characterized using flow cytometry in the WISH CA6+ cell line (FIG. 3C and FIG. 3D).

[8] = biological target: T1, CA6, tumor-associated …; test: FACS binding assay (Free), Kd app; unconjugated (Free) B-Fab, not DOTA conjugate
[9] = biological target: T1, CA6, tumor-associated …; test: FACS binding assay (DOTA Conjugate), Kd app
[10] = biological target: T1, CA6, tumor-associated …; test: flow cytometry (FACS) on WISH cells (CA6+), normalized fluorescence, with DOTA
[11] = biological target: T1, CA6, tumor-associated …; test: FACS binding assay (Free), Kd app

B1: B-Fab 1152 (Fab)
light: EIVLTQSPATMSASPGERVTITCSAHSSVSFMHWFQQKPGTSPKLWIYSTSSLASGVPARFGGSGSGTSYSLTISSMEAEDAATYYCQQRSSFPLTFGAGTKLELKGGGGSEIVLTQSPATMSASPGERVTITCSAHSSVSFMHWFQQKPGTSPKLWIYSTSSLASGVPARFGGSGSGTSYSLTISSMEAEDAATYYCQQRSSFPLTFGAGTKLELKRTVAAPSVFIFPPSDEQLKSGTASVVCLLNNFYPREAKVQWKVDNALQSGNSQESVTEQDSKDSTYSLSSTLTLSKADYEKHKVYACEVTHQGLSSPVTKSFNRGEC
heavy: EAQLVQSGAEVVKPGASVKMSCKASGYTFTSYNMHWVKQTPGQGLEWIGYIYPGNGATNYNQKFQGKATLTADPSSSTAYMQISSLTSEDSAVYFCARGDSVPFAYWGQGTLVTVSAGGGGSEAQLVQSGAEVVKPGASVKMSCKASGYTFTSYNMHWVKQTPGQGLEWIGYIYPGNGATNYNQKFQGKATLTADPSSSTAYMQISSLTSEDSAVYFCARGDSVPFAYWGQGTLVTVSAASTKGPSVFPLAPSSKSTSGGTAALGCLVKDYFPEPVTVSWNSGALTSGVHTFPAVLQSSGLYSLSSVVTVPSSSLGTQTYICNVNHKPSNTKVDKKVEPKSCDKTHT
notes: also called B-Fab G4S linker and C-terminal 6x-His tag; B-Fab DS6 based engineered antibody with GGGGS (G4S) linker and C-terminal 6x-His tag
[1]
  Kd: 88 nM

B2: Control DS6 monoclonal antibody (antibody, V domains shown)
VH: EAQLVQSGAEVVKPGASVKMSCKASGYTFTSYNMHWVKQTPGQGLEWIGYIYPGNGATNYNQKFQGKATLTADPSSSTAYMQISSLTSEDSAVYFCARGDSVPFAYWGQGTLVTVSA
VL: EIVLTQSPATMSASPGERVTITCSAHSSVSFMHWFQQKPGTSPKLWIYSTSSLASGVPARFGGSGSGTSYSLTISSMEAEDAATYYCQQRSSFPLTFGAGTKLELK
[2]
  EC50 (read off the curve): ~2 nM
[3]
  EC50 (read off the curve): ~2 nM
[4]
  EC50 (read off the curve): ~2 nM
[5]
  Kd: 2 nM

B3: DS6 B-Fab antibody-like binding protein (variant not named) (Fab)
light: EIVLTQSPATMSASPGERVTITCSAHSSVSFMHWFQQKPGTSPKLWIYSTSSLASGVPARFGGSGSGTSYSLTISSMEAEDAATYYCQQRSSFPLTFGAGTKLELKGGGGSGGGGSEIVLTQSPATMSASPGERVTITCSAHSSVSFMHWFQQKPGTSPKLWIYSTSSLASGVPARFGGSGSGTSYSLTISSMEAEDAATYYCQQRSSFPLTFGAGTKLELKRTVAAPSVFIFPPSDEQLKSGTASVVCLLNNFYPREAKVQWKVDNALQSGNSQESVTEQDSKDSTYSLSSTLTLSKADYEKHKVYACEVTHQGLSSPVTKSFNRGEC
heavy: EAQLVQSGAEVVKPGASVKMSCKASGYTFTSYNMHWVKQTPGQGLEWIGYIYPGNGATNYNQKFQGKATLTADPSSSTAYMQISSLTSEDSAVYFCARGDSVPFAYWGQGTLVTVSAGGGGSGGGGSEAQLVQSGAEVVKPGASVKMSCKASGYTFTSYNMHWVKQTPGQGLEWIGYIYPGNGATNYNQKFQGKATLTADPSSSTAYMQISSLTSEDSAVYFCARGDSVPFAYWGQGTLVTVSAASTKGPSVFPLAPSSKSTSGGTAALGCLVKDYFPEPVTVSWNSGALTSGVHTFPAVLQSSGLYSLSSVVTVPSSSLGTQTYICNVNHKPSNTKVDKKVEPKSCDKTHT
notes: also called B-Fab DS6 based engineered antibody
[6]
  EC50 (read off the curve): ~2 nM
  Kd: 2.2 nM

B4: B-Fab 1151 (Fab)
light: B3 light
heavy: B3 heavy
notes: It also carries a C-terminal 6x-His tag; also called B-Fab (G4S)2 linker and C-terminal 6x-His tag
[1]
  Kd: 3.4 nM

B5: B-Fab 1153 (Fab)
light: B3 light
heavy: B3 heavy
notes: also called B-Fab (G4S)2 linker; B-Fab (G4S)2 linker without C-terminal 6xHis tag
[7]
  EC50 (read off the curve): ~2 nM
[8]
  Kd: 4 nM
[1]
  Kd: 2.3 nM

B6: DOTA conjugate of B-Fab 1153 (Fab)
light: B3 light
heavy: B3 heavy
modifications: DOTA chelator conjugated, sites not stated (1.5-2.5 DOTA/fragment)
notes: also called B-Fab (DOTA Conjugate)
[9]
  Kd: 7.4 nM

B7: DOTA-DS6 conjugated antibody (B-Fab with DOTA, variant not named) (Fab)
light: B3 light
heavy: B3 heavy
modifications: DOTA chelator conjugated, sites not stated
[10]
  EC50 (read off the curve): ~6 nM
  Kd: 6.6 nM

B8: anti-CA6 diabody of SEQ ID NO: 12 fused to a tag of SEQ ID NO: 14 (other)
chain: EIVLTQSPATMSASPGERVTITCSAHSSVSFMHWFQQKPGTSPKLWIYSTSSLASGVPARFGGSGSGTSYSLTISSMEAEDAATYYCQQRSSFPLTFGAGTKLELKGGGSGGGGEAQLVQSGAEVVKPGASVKMSCKASGYTFTSYNMHWVKQTPGQGLEWIGYIYPGNGATNYNQKFQGKATLTADPSSSTAYMQISSLTSEDSAVYFCARGDSVPFAYWGQGTLVTVSAGGCGGHHHHHH
[11]
  Kd: 10 nM

B9: DOTA conjugate of the anti-CA6 diabody (SEQ ID NO: 12 fused to SEQ ID NO: 14) (other)
chain: B8 chain
modifications: DOTA chelator conjugated, sites not stated
notes: Homodimeric diabody conjugated to DOTA; also called Diabody (DOTA Conjugate)
[9]
  Kd: 7.5 nM
